Data: patent publication US9976134B2, “Thermolysin variants” (Danisco US Inc., priority 2007, dated 2018)

Assay: Stability assay in 25% TIDE 2X detergent with DTPA (residual Abz-AGLA-Nba protease activity)
Format: physicochemical
Conditions: 60 min at 32°C; variant residual AGLA activity divided by wild-type residual activity
Description: The stability of thermolysin and variants thereof was measured after incubation under defined conditions in the presence of 25% TIDE® 2× detergent. The initial and residual activity was determined.
MTPs were obtained from Costar (type 9017) and from Greiner (black plate, type 655076). Test Method Unstressed Conditions:
First, 20 μl thermolysin containing culture supernatant was diluted with 180 μl MES assay buffer. Then, 20 μl diluted supernatant was diluted further with 180 μl MES assay buffer. Subsequently 10 μl of this dilution was transferred into 190 μl AGLA-substrate solution in a pre-warmed plate (Greiner 655076) at 25° C. Any air bubbles present were blown away and the plate was measured according to the AGLA protease assay protocol described below.
First, 20 μl of culture supernatant was diluted with 180 μl 27.5% TIDE®+detergent solution and placed in the iEMS shaker. The plate covered with a plate seal was incubated for a total of 60 minutes at 32° C. at 900 rpm. In addition, 20 μl of culture supernatant was diluted with 180 μl 27.5% TIDE®−solution and placed in the iEMS shaker. This plate covered with a plate seal was incubated for a total of 180 minutes at 50° C. at 900 rpm.
Subsequently after the respective incubations, 20 μl of either of these solutions were diluted with 180 μl MES assay buffer and 10 μl of this dilution were diluted with 190 μl AGLA-substrate solution in a pre-warmed plate (Greiner 655076) at 25° C.
Fluorescence measurements were taken at excitation of 350 nm and emission of 420 nm. The spectrofluorometer software calculated the reaction rates (=slope) of the increase in fluorescence for each well to a linearly regressed line of (milli-) RFU/min. The ratio of the residual and initial AGLA activity was used to express the 25% TIDE® 2× stability as follows: Percentage of residual activity=[slope of stressed]*100/[slope of unstressed]
For each sample (thermolysin and variants thereof) the performance index was calculated by dividing the residual activity of the variant by the residual activity of thermolysin. The performance index compared the stability of the variant and the standard thermolysin enzyme (e.g., wild type or parental enzyme), determined under the same conditions.
In these experiments, the liberation of Abz-AG by protease cleavage of Abz-AGLA-Nba was monitored by fluorescence spectrometry (Ex. 350/Em. 420). The rate of appearance of Abz-AG was a measure of proteolytic activity.
The Abz-AGLA-Nba assay solution was prepared by adding 1 ml of the Abz-AGLA-Nba stock to 19 ml MES substrate buffer and mixed well for at least 2 minutes. Subsequently the thermolysin or variants thereof containing culture supernatants were diluted with MES assay buffer to a concentration of 1-6 μg protein per ml.
The assay was performed by adding 10 μl of diluted protease solution to each well, followed by the addition of 190 μl Abz-AGLA-Nba assay solution that was pre-equilibrated for at least 15 minutes at 25° C. The solutions were vigorously mixed, and the liberation of Abz-AG by protease cleavage of Abz-AGLA-Nba was monitored by fluorescence spectrometry at 25° C. in kinetic mode with excitation set at 350 nm and emission set at 420 nm. The rate of appearance of Abz-AG was a measure of proteolytic activity in the samples. The protease activity was expressed as RFU (relative fluorescence units·min^−1).
As described in Example 1, the stability of thermolysin variants was measured by determining the AGLA activity before and after incubation in the presence of TIDE® 2× heavy duty liquid (HDL) detergent at an elevated temperature. The tables contain the relative stability values compared to wild-type thermolysin, which is the quotient of the variant residual activity divided by the wild-type residual activity. A value greater than one indicates higher stability in the presence of detergent. […]

B1: T049M: single-substitution thermolysin variant (SEQ ID NO:3 numbering) (protein, listed as Geobacillus caldoproteolyticus)
chain: ITGTSTVGVGRGVLGDQKNINTTYSTYYYLQDNTRGNGIFTYDAKYRTMLPGSLWADADNQFFASYDAPAVDAHYYAGVTYDYYKNVHNRLSYDGNNAAIRSSVHYSQGYNNAFWNGSQMVYGDGDGQTFIPLSGGIDVVAHELTHAVTDYTAGLIYQNESGAINEAISDIFGTLVEFYANKNPDWEIGEDVYTPGISGDSLRSMSDPAKYGDPDHYSKRYTGTQDNGGVHINSGIINKAAYLISQGGTHYGVSVVGIGRDKLGKIFYRALTQYLTPTSNFSQLRAAAVQSATDLYGSTSQEVASVKQAFDAVGVK
PI (relative stability), 25% TIDE 2X with DTPA: 1.02

B2: G196D: single-substitution thermolysin variant (SEQ ID NO:3 numbering) (protein, listed as Geobacillus caldoproteolyticus)
chain: ITGTSTVGVGRGVLGDQKNINTTYSTYYYLQDNTRGNGIFTYDAKYRTTLPGSLWADADNQFFASYDAPAVDAHYYAGVTYDYYKNVHNRLSYDGNNAAIRSSVHYSQGYNNAFWNGSQMVYGDGDGQTFIPLSGGIDVVAHELTHAVTDYTAGLIYQNESGAINEAISDIFGTLVEFYANKNPDWEIGEDVYTPDISGDSLRSMSDPAKYGDPDHYSKRYTGTQDNGGVHINSGIINKAAYLISQGGTHYGVSVVGIGRDKLGKIFYRALTQYLTPTSNFSQLRAAAVQSATDLYGSTSQEVASVKQAFDAVGVK
PI (relative stability), 25% TIDE 2X with DTPA: 1.02

B3: A056Y: single-substitution thermolysin variant (SEQ ID NO:3 numbering) (protein, listed as Geobacillus caldoproteolyticus)
chain: ITGTSTVGVGRGVLGDQKNINTTYSTYYYLQDNTRGNGIFTYDAKYRTTLPGSLWYDADNQFFASYDAPAVDAHYYAGVTYDYYKNVHNRLSYDGNNAAIRSSVHYSQGYNNAFWNGSQMVYGDGDGQTFIPLSGGIDVVAHELTHAVTDYTAGLIYQNESGAINEAISDIFGTLVEFYANKNPDWEIGEDVYTPGISGDSLRSMSDPAKYGDPDHYSKRYTGTQDNGGVHINSGIINKAAYLISQGGTHYGVSVVGIGRDKLGKIFYRALTQYLTPTSNFSQLRAAAVQSATDLYGSTSQEVASVKQAFDAVGVK
PI (relative stability), 25% TIDE 2X with DTPA: 1.05

B4: S065T: single-substitution thermolysin variant (SEQ ID NO:3 numbering) (protein, listed as Geobacillus caldoproteolyticus)
chain: ITGTSTVGVGRGVLGDQKNINTTYSTYYYLQDNTRGNGIFTYDAKYRTTLPGSLWADADNQFFATYDAPAVDAHYYAGVTYDYYKNVHNRLSYDGNNAAIRSSVHYSQGYNNAFWNGSQMVYGDGDGQTFIPLSGGIDVVAHELTHAVTDYTAGLIYQNESGAINEAISDIFGTLVEFYANKNPDWEIGEDVYTPGISGDSLRSMSDPAKYGDPDHYSKRYTGTQDNGGVHINSGIINKAAYLISQGGTHYGVSVVGIGRDKLGKIFYRALTQYLTPTSNFSQLRAAAVQSATDLYGSTSQEVASVKQAFDAVGVK
PI (relative stability), 25% TIDE 2X with DTPA: 1.04

B5: G196H: single-substitution thermolysin variant (SEQ ID NO:3 numbering) (protein, listed as Geobacillus caldoproteolyticus)
chain: ITGTSTVGVGRGVLGDQKNINTTYSTYYYLQDNTRGNGIFTYDAKYRTTLPGSLWADADNQFFASYDAPAVDAHYYAGVTYDYYKNVHNRLSYDGNNAAIRSSVHYSQGYNNAFWNGSQMVYGDGDGQTFIPLSGGIDVVAHELTHAVTDYTAGLIYQNESGAINEAISDIFGTLVEFYANKNPDWEIGEDVYTPHISGDSLRSMSDPAKYGDPDHYSKRYTGTQDNGGVHINSGIINKAAYLISQGGTHYGVSVVGIGRDKLGKIFYRALTQYLTPTSNFSQLRAAAVQSATDLYGSTSQEVASVKQAFDAVGVK
PI (relative stability), 25% TIDE 2X with DTPA: 1.19

B6: A056R: single-substitution thermolysin variant (SEQ ID NO:3 numbering) (protein, listed as Geobacillus caldoproteolyticus)
chain: ITGTSTVGVGRGVLGDQKNINTTYSTYYYLQDNTRGNGIFTYDAKYRTTLPGSLWRDADNQFFASYDAPAVDAHYYAGVTYDYYKNVHNRLSYDGNNAAIRSSVHYSQGYNNAFWNGSQMVYGDGDGQTFIPLSGGIDVVAHELTHAVTDYTAGLIYQNESGAINEAISDIFGTLVEFYANKNPDWEIGEDVYTPGISGDSLRSMSDPAKYGDPDHYSKRYTGTQDNGGVHINSGIINKAAYLISQGGTHYGVSVVGIGRDKLGKIFYRALTQYLTPTSNFSQLRAAAVQSATDLYGSTSQEVASVKQAFDAVGVK
PI (relative stability), 25% TIDE 2X with DTPA: 1.10

B7: A058S: single-substitution thermolysin variant (SEQ ID NO:3 numbering) (protein, listed as Geobacillus caldoproteolyticus)
chain: ITGTSTVGVGRGVLGDQKNINTTYSTYYYLQDNTRGNGIFTYDAKYRTTLPGSLWADSDNQFFASYDAPAVDAHYYAGVTYDYYKNVHNRLSYDGNNAAIRSSVHYSQGYNNAFWNGSQMVYGDGDGQTFIPLSGGIDVVAHELTHAVTDYTAGLIYQNESGAINEAISDIFGTLVEFYANKNPDWEIGEDVYTPGISGDSLRSMSDPAKYGDPDHYSKRYTGTQDNGGVHINSGIINKAAYLISQGGTHYGVSVVGIGRDKLGKIFYRALTQYLTPTSNFSQLRAAAVQSATDLYGSTSQEVASVKQAFDAVGVK
PI (relative stability), 25% TIDE 2X with DTPA: 1.02

B8: I156H: single-substitution thermolysin variant (SEQ ID NO:3 numbering) (protein, listed as Geobacillus caldoproteolyticus)
chain: ITGTSTVGVGRGVLGDQKNINTTYSTYYYLQDNTRGNGIFTYDAKYRTTLPGSLWADADNQFFASYDAPAVDAHYYAGVTYDYYKNVHNRLSYDGNNAAIRSSVHYSQGYNNAFWNGSQMVYGDGDGQTFIPLSGGIDVVAHELTHAVTDYTAGLHYQNESGAINEAISDIFGTLVEFYANKNPDWEIGEDVYTPGISGDSLRSMSDPAKYGDPDHYSKRYTGTQDNGGVHINSGIINKAAYLISQGGTHYGVSVVGIGRDKLGKIFYRALTQYLTPTSNFSQLRAAAVQSATDLYGSTSQEVASVKQAFDAVGVK
PI (relative stability), 25% TIDE 2X with DTPA: 1.21

B9: I156K: single-substitution thermolysin variant (SEQ ID NO:3 numbering) (protein, listed as Geobacillus caldoproteolyticus)
chain: ITGTSTVGVGRGVLGDQKNINTTYSTYYYLQDNTRGNGIFTYDAKYRTTLPGSLWADADNQFFASYDAPAVDAHYYAGVTYDYYKNVHNRLSYDGNNAAIRSSVHYSQGYNNAFWNGSQMVYGDGDGQTFIPLSGGIDVVAHELTHAVTDYTAGLKYQNESGAINEAISDIFGTLVEFYANKNPDWEIGEDVYTPGISGDSLRSMSDPAKYGDPDHYSKRYTGTQDNGGVHINSGIINKAAYLISQGGTHYGVSVVGIGRDKLGKIFYRALTQYLTPTSNFSQLRAAAVQSATDLYGSTSQEVASVKQAFDAVGVK
PI (relative stability), 25% TIDE 2X with DTPA: 1.07

B10: S065I: single-substitution thermolysin variant (SEQ ID NO:3 numbering) (protein, listed as Geobacillus caldoproteolyticus)
chain: ITGTSTVGVGRGVLGDQKNINTTYSTYYYLQDNTRGNGIFTYDAKYRTTLPGSLWADADNQFFAIYDAPAVDAHYYAGVTYDYYKNVHNRLSYDGNNAAIRSSVHYSQGYNNAFWNGSQMVYGDGDGQTFIPLSGGIDVVAHELTHAVTDYTAGLIYQNESGAINEAISDIFGTLVEFYANKNPDWEIGEDVYTPGISGDSLRSMSDPAKYGDPDHYSKRYTGTQDNGGVHINSGIINKAAYLISQGGTHYGVSVVGIGRDKLGKIFYRALTQYLTPTSNFSQLRAAAVQSATDLYGSTSQEVASVKQAFDAVGVK
PI (relative stability), 25% TIDE 2X with DTPA: 1.05
